Test results: the supplement of paper PMC12764529
± gives the half width of the 95% confidence interval.

Assay: folding stability dG unfold (combined trypsin and chymotrypsin); higher = more stable
Outline: (§1)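 How resistant each design was to proteolysis was captured as K50, inferred by Bayesian fitting of sequencing counts. Unfolding free energy was then derived relative to a sequence-predicted unfolded-state K50 and a shared folded-state K50, per protease or combined. Digestion used trypsin and chymotrypsin at 11 threefold-diluted concentrations plus a no-protease condition, on mini-proteins under 80 residues without cysteine in a PA-tagged cDNA display construct. Designs were kept only when AlphaFold2 dimer inter-PAE was above 15.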

Question: With “SAGGSAGGSKITVHRNPPGYYVIRIHGPGPITIMIPPKDADELANKLKDLGFDMKVEVYPLDDSAGGSAGGS [r20_124_TrROS]” as the sequence, how does the “folding stability dG unfold” value read?
Answer: The value was 1.1 ± 0.11 kcal/mol.

Question: For “SAGGSAGGSAGGALLVTPTPDGYIARVKDPNSDSWTVVPLSPEELEELAAAGVPTVEVLPSAGGSAGGSAGG [r7_266_JUSTAS]”, which “folding stability dG unfold” value is on record?
Answer: The value was 1.09 ± 0.16 kcal/mol.

Question: For “SAGGSPKAREERFEKTLPDGTVVPVTLTRLPDGTVRVETTTYTYNSPEPVASTSTTTLPEAEVAAALSAGGS [r16_470_JUSTAS]”, which “folding stability dG unfold” value is on record?
Answer: Its value is 0.686 ± 0.086 kcal/mol.

Question: Which “folding stability dG unfold” value does the source give for “SAGGSEEEIKKKIEEIAKKRGTKIKSITIKKLPDGSLLATVTLEDNPNTTIEFKVEKNKVEITKINKSAGGS [r8_432_JUSTAS]” here?
Answer: The value was 2.61 ± 0.066 kcal/mol.

Question: Which “folding stability dG unfold” value does the source give for “SAGISIRFPGMQIEIDEIERDNNKVVIRVEVTMPAKNPNGQPQMMTHTMWIVIKIPPPPPPADPADAKKSAG [r5_70_TrROS]” here?
Answer: The value was 3.51 ± 0.23 kcal/mol.

Question: With “SAGGSAGGSAGGEVIEIELPGKTKEEIEEAIKKLPENYKIEIKKDENGRIRVRIFRKEDLSAGGSAGGSAGG [r7_662_TrROS_Hall]” as the sequence, how does the “folding stability dG unfold” value read?
Answer: The value was 1.44 ± 0.42 kcal/mol.

Question: Which “folding stability dG unfold” value does the source give for “SAGGSAGGSDVEDIIKKLKIPPGYRMRFPDGKSHKFNNLDDIRNLAEMGMPPDNIDKIQIQPYSAGGSAGGS [r12_430_TrROS]” here?
Answer: Its value is 0.0517 ± 0.15 kcal/mol.

Question: With “SAEPITITWPNGMQIPLYKDDDGEIEIKIQMYDPKDGKPVGEQEQRIDPDDNTIEFRFPNGWPFSITIPDSA [r9_56_TrROS]” as the sequence, how does the “folding stability dG unfold” value read?
Answer: The value was 0.473 ± 0.22 kcal/mol.

Question: For “SAGGSAGGSAGGSIVVETKKNPGPERVVTVKLPDGTPLADVPVSPDEDPEEAVKRALELGSAGGSAGGSAGG [r7_444_JUSTAS]”, which “folding stability dG unfold” value is on record?
Answer: Its value is 0.386 ± 0.17 kcal/mol.

Question: For “SAGGSPDEAVPLPVPAKITLPGGAEFTVEEAVVLPNGEVLVKATLISPYPDPREAPFVVPLELLDISSAGGS [r16_498_TrMRF]”, which “folding stability dG unfold” value is on record?
Answer: Its value is 0.235 ± 0.066 kcal/mol.

Question: With “SAGGATRIRVLATNASGEKVELDIPQAIADAIAEALKQGKPIPPGPASVIAAFATSNGYDFEIVDISSAGGS [r8_159_TrMRF]” as the sequence, how does the “folding stability dG unfold” value read?
Answer: The value was 2.85 ± 0.093 kcal/mol.

Question: For “SAGGPMPLDDIEIHNVWPYKGEYWMVMITVPNNGKEIMIPWDDLDELLENDPNVEVDVMPIKPGQPMSAGGS [r16_61_TrROS]”, which “folding stability dG unfold” value is on record?
Answer: Its value is 1.25 ± 0.083 kcal/mol.

Question: Which “folding stability dG unfold” value does the source give for “SAGGSAGGSAGGTITLPGGAEVTEVERLPGGVLKITGVLTLPGGPVTVEVTLPVTPELLESAGGSAGGSAGG [r7_38_JUSTAS]” here?
Answer: The value was 1.03 ± 0.099 kcal/mol.

Question: Which “folding stability dG unfold” value does the source give for “SAGGYIPASARIEVLEVFEDGTVRVRVTYPDGSEAEVVARLVRTADGRVYLEIFDPRTGRLLATLELTSAGG [r13_527_TrMRF]” here?
Answer: Its value is 3.88 ± 0.092 kcal/mol.

Question: With “SAGGSAGGSAGKEEIKIEITKVEPLEDGSYIAEVIATPKNGKKIPYTALIDPKTGKITIGSAGGSAGGSAGG [r11_31_TrMRF]” as the sequence, how does the “folding stability dG unfold” value read?
Answer: The value was 0.426 ± 0.087 kcal/mol.

Question: For “SAGGSAGGSTLKLEIVNEDGYKVEIEAELELVEKDGKLVLKLKVKIKVEPAKEVKEVKVELPESAGGSAGGS [r12_581_TrROS_Hall]”, which “folding stability dG unfold” value is on record?
Answer: Its value is 3.45 ± 0.44 kcal/mol.

Question: Which “folding stability dG unfold” value does the source give for “SANTRSIPFPGSADDIVDEIKNLIDANPDVKIRIQPMDGEEYEIDIEGIEKIKVERMPDGWYMITVELPSAG [r14_807_TrROS]” here?
Answer: Its value is 1.16 ± 0.21 kcal/mol.

Question: Which “folding stability dG unfold” value does the source give for “SMKVTVTVERLPDGRGRITITINDSTLEIEVPPGLDPEELRAFAEETAKEIEEKLKEEGNPVTIEEITLSSA [r9_751_JUSTAS]” here?
Answer: Its value is 2.15 ± 0.24 kcal/mol.

Question: For “SAGKTRTINFPGFQIQVQRDPDGKKEITIMFDNPEQRKQMIEQNPFLREFIEWAEKDGLKVEIHVMPPKSAG [r14_873_TrROS]”, which “folding stability dG unfold” value is on record?
Answer: The value was 2.06 ± 0.18 kcal/mol.

Question: Which “folding stability dG unfold” value does the source give for “SPKELEFKHPDNGMEVKIRLDPNQGRIEIEVRPPNGPPVKMDMEVTDDRIKIDIYYPGGRPMMQLEFPLPSA [r9_665_TrROS]” here?
Answer: Its value is 2.88 ± 0.085 kcal/mol.

Question: For “SAGGKEKYKIKIYNKKTGKEYEFEIPLDEIVKYDKKNKKIYIKLKNGKKLEFKSLEDIVKIEIEKLPSAGGS [r8_111_TrROS_Hall]”, which “folding stability dG unfold” value is on record?
Answer: Its value is 3.14 ± 0.14 kcal/mol.

Question: Which “folding stability dG unfold” value does the source give for “SEKPPKVKIVSVEYNPETGTVTITVEVEPGQKVRIFVRNSDGSVQEIDLESKTITINLPPGAEIVRIEVLSA [r9_113_TrROS_Hall]” here?
Answer: Its value is 4.09 ± 0.14 kcal/mol.

Question: With “SAGGSAWIRINSPEMVEAFAKELKDEGWKLKDVDVQRDPNNGNVWFEIPIEHPNNGKKRELEIWFRSAGGSA [r15_123_TrROS]” as the sequence, how does the “folding stability dG unfold” value read?
Answer: Its value is 0.141 ± 0.11 kcal/mol.

Question: For “SAAEPPPVYLVRITVKVPPGVKPLPPGAVVTYDPATGTLTVYVLMTADEIDALAAAPGVEITDIEVIKLDSA [r9_827_TrROS_Hall]”, which “folding stability dG unfold” value is on record?
Answer: Its value is 4.59 ± 0.24 kcal/mol.

Question: Which “folding stability dG unfold” value does the source give for “SAGGMKVEVEKDPIKDGTTITVETGLDPEEVRAFLEELLGPPLEDVTFETAPDGTLVVTARVPPDVGSAGGS [r16_605_JUSTAS]” here?
Answer: Its value is 0.816 ± 0.12 kcal/mol.

Question: For “SSKIKEFIIKLPEKNKYYKIIVTPTEIYIYDENGKKIKKFSIPKNKKIKKIDIKIDKKKNKLIIKVYLEKSA [r9_939_TrMRF]”, which “folding stability dG unfold” value is on record?
Answer: Its value is 4.42 ± 0.21 kcal/mol.

Question: Which “folding stability dG unfold” value does the source give for “SAGGSAGGSAGGGMSFKKRKGSISLTLRVTLTLPNGTPATLDIELELEEETVEPVYPELESAGGSAGGSAGG [r7_926_JUSTAS]” here?
Answer: Its value is 4.19 ± 0.24 kcal/mol.

Question: For “SAGGMVTLTLPSPDGSTLTVTVEKDPNADYYRATVTTHHPDGTVTVTESVIHPDGTTTTLATTTLPASAGGS [r16_213_JUSTAS]”, which “folding stability dG unfold” value is on record?
Answer: The value was 2.23 ± 0.12 kcal/mol.

Question: Which “folding stability dG unfold” value does the source give for “SAPKIDSISIMWPGNHWYISIWYPDKNGEPMKEVMFPFESPEDLKDQIEELSPPGDVTVDIYPMPPDAFSAG [r14_964_TrROS]” here?
Answer: Its value is 1.51 ± 0.098 kcal/mol.

Question: With “SAMIKVVLPGAKLEKVEVFPDKTVKAVFVAKDHLVEIYFDPETGKALIRVYDGEKEYEFVLDVHPDDVISAG [r14_218_TrMRF]” as the sequence, how does the “folding stability dG unfold” value read?
Answer: The value was 4.33 ± 0.4 kcal/mol.

Question: For “SAGGSAGGSAGGGSMESVVLNVPIYEKTPDGSWRLVKELPILVPVDASPEVVEKKRKELSAGGSAGGSAGGS [r10_470_JUSTAS]”, which “folding stability dG unfold” value is on record?
Answer: Its value is -0.481 ± 0.17 kcal/mol.

Assay: folding stability dG unfold from chymotrypsin proteolysis; higher = more stable
Outline: as §1

Question: With “SAGGSAGGSKITVHRNPPGYYVIRIHGPGPITIMIPPKDADELANKLKDLGFDMKVEVYPLDDSAGGSAGGS [r20_124_TrROS]” as the sequence, how does the “folding stability dG unfold” value read?
Answer: Its value is 1.05 ± 0.1 kcal/mol.

Question: For “SAGGSAGGSAGGALLVTPTPDGYIARVKDPNSDSWTVVPLSPEELEELAAAGVPTVEVLPSAGGSAGGSAGG [r7_266_JUSTAS]”, which “folding stability dG unfold” value is on record?
Answer: The value was 1.46 ± 0.064 kcal/mol.

Question: With “SAGGSPKAREERFEKTLPDGTVVPVTLTRLPDGTVRVETTTYTYNSPEPVASTSTTTLPEAEVAAALSAGGS [r16_470_JUSTAS]” as the sequence, how does the “folding stability dG unfold” value read?
Answer: Its value is 0.684 ± 0.11 kcal/mol.

Question: With “SAGGSEEEIKKKIEEIAKKRGTKIKSITIKKLPDGSLLATVTLEDNPNTTIEFKVEKNKVEITKINKSAGGS [r8_432_JUSTAS]” as the sequence, how does the “folding stability dG unfold” value read?
Answer: Its value is 2.93 ± 0.051 kcal/mol.

Question: Which “folding stability dG unfold” value does the source give for “SAGISIRFPGMQIEIDEIERDNNKVVIRVEVTMPAKNPNGQPQMMTHTMWIVIKIPPPPPPADPADAKKSAG [r5_70_TrROS]” here?
Answer: The value was 3.96 ± 0.053 kcal/mol.

Question: Which “folding stability dG unfold” value does the source give for “SAGGSAGGSAGGEVIEIELPGKTKEEIEEAIKKLPENYKIEIKKDENGRIRVRIFRKEDLSAGGSAGGSAGG [r7_662_TrROS_Hall]” here?
Answer: Its value is 1.5 ± 0.17 kcal/mol.

Question: With “SAGGSAGGSDVEDIIKKLKIPPGYRMRFPDGKSHKFNNLDDIRNLAEMGMPPDNIDKIQIQPYSAGGSAGGS [r12_430_TrROS]” as the sequence, how does the “folding stability dG unfold” value read?
Answer: The value was 0.09 ± 0.28 kcal/mol.

Question: Which “folding stability dG unfold” value does the source give for “SAEPITITWPNGMQIPLYKDDDGEIEIKIQMYDPKDGKPVGEQEQRIDPDDNTIEFRFPNGWPFSITIPDSA [r9_56_TrROS]” here?
Answer: Its value is 0.0536 ± 0.57 kcal/mol.

Question: Which “folding stability dG unfold” value does the source give for “SAGGSAGGSAGGSIVVETKKNPGPERVVTVKLPDGTPLADVPVSPDEDPEEAVKRALELGSAGGSAGGSAGG [r7_444_JUSTAS]” here?
Answer: The value was 0.305 ± 0.037 kcal/mol.

Question: With “SAGGSPDEAVPLPVPAKITLPGGAEFTVEEAVVLPNGEVLVKATLISPYPDPREAPFVVPLELLDISSAGGS [r16_498_TrMRF]” as the sequence, how does the “folding stability dG unfold” value read?
Answer: Its value is 0.395 ± 0.03 kcal/mol.

Question: Which “folding stability dG unfold” value does the source give for “SAGGATRIRVLATNASGEKVELDIPQAIADAIAEALKQGKPIPPGPASVIAAFATSNGYDFEIVDISSAGGS [r8_159_TrMRF]” here?
Answer: The value was 3.106 ± 0.031 kcal/mol.

Question: With “SAGGPMPLDDIEIHNVWPYKGEYWMVMITVPNNGKEIMIPWDDLDELLENDPNVEVDVMPIKPGQPMSAGGS [r16_61_TrROS]” as the sequence, how does the “folding stability dG unfold” value read?
Answer: Its value is 1.21 ± 0.061 kcal/mol.

Question: Which “folding stability dG unfold” value does the source give for “SAGGSAGGSAGGTITLPGGAEVTEVERLPGGVLKITGVLTLPGGPVTVEVTLPVTPELLESAGGSAGGSAGG [r7_38_JUSTAS]” here?
Answer: Its value is 1.03 ± 0.049 kcal/mol.

Question: For “SAGGYIPASARIEVLEVFEDGTVRVRVTYPDGSEAEVVARLVRTADGRVYLEIFDPRTGRLLATLELTSAGG [r13_527_TrMRF]”, which “folding stability dG unfold” value is on record?
Answer: The value was 3.81 ± 0.054 kcal/mol.

Question: For “SAGGSAGGSAGKEEIKIEITKVEPLEDGSYIAEVIATPKNGKKIPYTALIDPKTGKITIGSAGGSAGGSAGG [r11_31_TrMRF]”, which “folding stability dG unfold” value is on record?
Answer: Its value is 0.18 ± 0.14 kcal/mol.
